Molecular target: T1, Aβ1-42 (Homo sapiens, UniProt P05067)
T1 construct: Aβ1-42 (American Peptide); purchased American Peptide
Assay: Aβ1-42 fibril formation ThT fluorescence assay
Type: biochemical
Conditions: for decrease in ThT fluorescence of Aβ1-42: 30 μM Aβ1-42, 48 hrs
Protocol: The effect of five synthesized αB crystallin peptides STSLSPFYLRPPSFLRAP (ST), DRFSVNLDVKHFS (DR), HGKHEERQDE (HG), LTITSSLSSDGV (LT), and ERTIPITRE (ER) on Aβ1-42 fibrillation was measured using the ThT fluorescence assay (FIG. 1). The formation and inhibition of Aβ1-42 fibrils was qualitatively verified by fluorescence and bright-field microscopy. The concentration and stoichometry of the peptides was varied relative to Aβ1-42 to establish a concentration curve. In addition, the effect of two known inhibitors of Aβ1-42 fibrillation (APS and NAP) and a control neuropeptide (AT1) with no fibril inhibition activity was measured and compared to the effect of the αB crystallin peptides on Aβ1-42 fibrillation. The ThT fluorescence of 30 μM Aβ1-42 alone incubated at 37° C. for 48 hrs increased from ˜350,000 to ˜450,000 RFU. […] In contrast, 6 μM DR, LT, and […] had no effect on Aβ1-42 fibril formation. […] Increasing the concentration of the DR peptide to 30 μM decreased the ThT fluorescence by approximately 50%. […] However, when the concentrations of the LT and ER peptides were increased to 150 μM, a 60-100% decrease in ThT fluorescence was measured. […] The negative control peptide AT1 had no effect on Aβ1-42 fibril formation even at a concentration as high as 300 μM.
The Thioflavin T (ThT) fluorescence of Aβ1-42 in the presence of varying concentrations of αB crystallin peptides and controls was measured. […] Addition of 6 μM DR, LT, and ER had no effect on the ThT fluorescence of Aβ1-42. When the concentration of the peptides was increased to 30 μM (1:1::peptide:Aβ1-42), the αB crystallin peptides ST, DR, HG decreased the ThT fluorescence by 50-100%. At the same concentrations, APS and NAP decreased the ThT fluorescence by 30-100%. When the concentration of the peptides was increased further to 150 μM ([…]), four of the five αB crystallin peptides DR, HG, LT, and ER decreased the ThT fluorescence by 58-100%. At the same concentrations, APS and NAP decreased the fluorescence by 28-100%. […] The formation and inhibition of Aβ fibrils was verified microscopically.
Thioflavin T (ThT) Assays. The effect of the five αB crystallin peptides (ST, DR, HG, LT, and ER) on Aβ1-42 fibril formation was measured using the ThT fluorescence assay (44-47) and compared with two known inhibitors of Aβ1-42 fibril formation (Tramiprosate and NAP)(34, 36) and a negative control neuropeptide Angiotensin 1 (AT1). Thioflavin T is a fluorescent dye that has a high affinity for amyloid fibrils and becomes fluorescent (excitation λ=450 nm, emission λ=486 nm) when bound to fibrils. For the Aβ1-42 assays, peptides and APS were dissolved to 2 mM in 0.25% DMSO and diluted accordingly, while Aβ1-42 was dissolved in 20 mM Tris-Cl, pH 7.40, and 100 mM NaCl. For the 5:1::inhibitor:Aβ1-42 assay, 10 μL of 450 μM peptide or APS was mixed with 10 μL of 90 μM Aβ1-42), 7 μL 20 mM Tris-Cl, 100 mM NaCl, pH 7.4 and 3 μL of 1 mM ThT. For the 1:1::inhibitor:Aβ1-42 assay, 10 μL of 90 μM peptide or APS was mixed with 10 μL of 90 μM Aβ(1-42), 7 μL 20 mM Tris-Cl, 100 mM NaCl, pH 7.4 and 3 μL of 1 mM ThT. For the 1:5::inhibitor:Aβ1-42 assay, 10 μL of 18 μM peptide or APS was mixed with 10 μL of 90 μM Aβ(1-42), 7 μL 20 mM Tris-Cl, 100 mM NaCl, pH 7.4 and 3 μL of 1 mM ThT. ThT fluorescence in relative fluorescence units (RFU) was measured using a Perkin Elmer Victor^3 V plate reader. Assays were performed in 384-well fluorescence plates in duplicates or triplicates. Samples were incubated at 37° C. for a total of 48 hours. ThT fluorescence was measured at 0, 24, and 48 hours. The effect of the peptides and APS was calculated as percentage fibril formation relative to Aβ1-42 alone (100%) at the end of 48 hours.

| Sequence | decrease in ThT fluorescence of Aβ1-42 (6 μM inhibitor, 37° C.) | effect on Aβ1-42 fibril formation, over all concentrations (any concentration) | decrease in ThT fluorescence of Aβ1-42 (30 μM inhibitor (1:1)) | inhibition of Aβ fibrillation (peptide to substrate concentration of 1:5) [%] |
| --- | --- | --- | --- | --- |
| DRFSVNLDVKHFS | no effect | – | – | – |
| HGKHEERQDE | – | most effective inhibitor | – | – |
| ERTIPITRE | no effect | – | no effect | – |
| LTITSSLSSDGV | no effect | – | no effect | – |
| STSLSPFYLRPPSFLRAP | – | – | – | 100 |
